pKd: −log10 of the molar value. Like-named read-outs stand apart in the source and are kept apart here. Where no end group is shown, it is not given here.
Tests used:
[1] = Circular dichroism analysis, variable temperature measurement; type: physicochemical
Description: Secondary structure of ABD variants was analyzed by circular dichroism (CD) spectroscopy using a scan from 195-250 nm before and after the variable temperature measurement (see below). Purified albumin binding polypeptide variants were diluted in 1×PBS, to final concentration of 0.5 mg/ml. Circular dichroism (CD) analysis was performed on a Jasco J-810 spectropolarimeter in a cell with an optical path-length of 1 mm. Alpha helical proteins show typical minima at 208 and 222 nm.
Variable temperature measurement was used to determine the melting temperature, Tm. In these measurements, the absorbance was measured at 221 nm from 20° C. to 90° C., with a temperature slope of 5° C./min.
The melting temperatures of the ABD variants were calculated by determining the midpoint of the transtition in the CD vs. temperature plot.
The CD spectra before and after heat treatment were compared in order to detect potential heat denaturation of the proteins. […] FIGS. 2A and 2B show the CD spectra of the new ABD variants and of PEP07843 (SEQ ID NO:27) for comparison.

[2] = biological target: human serum albumin (HSA) (Homo sapiens, UniProt P02768); experiment: biochemical
Sequence of human serum albumin (HSA) (P02768 25-609): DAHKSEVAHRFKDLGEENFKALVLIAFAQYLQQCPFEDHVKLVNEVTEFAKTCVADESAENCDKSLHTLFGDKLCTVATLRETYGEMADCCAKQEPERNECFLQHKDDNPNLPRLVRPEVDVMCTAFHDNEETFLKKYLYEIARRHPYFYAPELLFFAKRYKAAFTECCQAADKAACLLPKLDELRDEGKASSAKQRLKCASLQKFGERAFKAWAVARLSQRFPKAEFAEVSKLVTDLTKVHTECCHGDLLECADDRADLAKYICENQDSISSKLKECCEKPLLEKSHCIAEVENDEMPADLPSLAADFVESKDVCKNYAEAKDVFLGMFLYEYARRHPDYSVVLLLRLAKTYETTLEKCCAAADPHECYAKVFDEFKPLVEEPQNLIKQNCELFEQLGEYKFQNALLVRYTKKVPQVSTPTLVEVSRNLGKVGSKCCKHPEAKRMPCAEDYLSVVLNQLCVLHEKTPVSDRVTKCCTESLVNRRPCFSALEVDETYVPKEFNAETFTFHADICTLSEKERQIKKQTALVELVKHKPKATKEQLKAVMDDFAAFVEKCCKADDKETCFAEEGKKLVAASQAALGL
Description: Biosensor analysis on a Biacore2000 instrument (GE Healthcare) was performed with HSA (Albucult®, Novozymes), CSA (purified in-house from cynomolgus serum), RSA (Sigma-Aldrich, Cat. No. A6272) and MSA (Sigma-Aldrich, Cat. No. A3559) immobilized by amine coupling onto the carboxylated dextran layer of the surfaces of CM-5 chips (research grade; GE Healthcare) according to the manufacturer's recommendations.
ABD variants were used as analytes and were injected in duplicates over the chip at three analyte concentrations (2.5, 10 and 40 nM). The association phase was 5 min followed by a long dissociation phase (60 min) to account at least partially for the slow off-rate of the ABD variants. […] Therefore, all KD's are given as relative KD values only.
The results were analyzed with BiaEvaluation software (GE Healthcare). Curves of the blank surface and buffer injection were subtracted from the curves of the ligand surfaces.
The Biacore 2000 instrument has a technical limitation which hinders measurements of very high affinity. […] After subtraction of reference surface and buffer injection, curves were fitted to a 1:1 (Langmuir) binding model using BIAevaluation software with correction for mass transfer and with RUmax set as a local parameter.

clostripain [3] = tested on: T1, clostripain; experiment: Clostripain cleavage, SDS-PAGE analysis; type: in vitro ADME, Clostridium histolyticum; details: Clostridium histolyticum, clostripain (isolated protease), pH 7.6, 5 U clostripain/mg, 25° C.; for metabolised at 22 h: read-out: cleaved after 22 h
T1 construct: is a two-chain proteinase that can be isolated from Clostridium histolyticum; purchased Worthington LS001641
Description: (§1) Enzymatic digestion of PEP07843 and the three new variants was performed using clostripain from Worthington (No. LS001641) in 25 mM NaPi buffer pH 7.6, 150 mM NaCl, 1 mM CaAc, 2.5 mM DTT. Clostripain was dissolved freshly before initiation of the experiment.
(§2) In the following experiment, the clostripain amount was increased to 5 U/mg ABD variant, and the samples were incubated for 0, 1, 2, 4, 6, 8 and 22 h at 25° C. in a thermomixer with mild shaking at 600 rpm.
(§3) Reactions were stopped by addition of 4×SDS sample buffer followed by incubation for 15 min at 70° C. (for SDS PAGE analysis) or by addition of trifluoroacetic acid (TFA) to a final concentration of 0.3%, which lowers the pH to approximately 2, and freezing at −80° C. (for LC/MS analysis).
(§4) Controls were reactions without clostripain and omitting DTT which […] clostripain activity.
(§5) Analysis of samples incubated with clostripain for up to 22 h was performed by SDS-PAGE using NuPAGE 4-12% gels from Invitrogen (see FIG. 3). In FIG. 3, lane S indicates sharp molecular weight marker standard (molecular weights 3.5, 10, 15, 20, 30, 40, 50, 60, 80, 110 and 160 kDa), lane B indicates a blank sample with clostripain but no ABD variant, and lanes 0-22 indicate ABD variant samples taken at the indicated incubation times in hours.

clostripain [4] = biological target: T2, clostripain (Hathewaya histolytica, UniProt P09870); experiment: Clostripain cleavage, SDS-PAGE analysis; type: in vitro ADME, Clostridium histolyticum; details: 5 U clostripain/mg
T2 construct: is a two-chain proteinase that can be isolated from Clostridium histolyticum; purchased Worthington LS001641
T2 sequence (P09870 191-526): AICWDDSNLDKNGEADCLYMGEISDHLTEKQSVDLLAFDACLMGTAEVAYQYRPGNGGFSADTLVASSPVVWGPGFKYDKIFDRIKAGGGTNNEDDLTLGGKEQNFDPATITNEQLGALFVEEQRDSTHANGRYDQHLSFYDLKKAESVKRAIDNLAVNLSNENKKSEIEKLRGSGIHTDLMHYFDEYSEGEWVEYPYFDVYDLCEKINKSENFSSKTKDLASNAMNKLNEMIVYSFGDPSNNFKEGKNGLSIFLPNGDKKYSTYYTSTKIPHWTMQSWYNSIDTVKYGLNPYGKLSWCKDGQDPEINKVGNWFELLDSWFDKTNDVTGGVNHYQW
T2 sequence (P09870 51-181): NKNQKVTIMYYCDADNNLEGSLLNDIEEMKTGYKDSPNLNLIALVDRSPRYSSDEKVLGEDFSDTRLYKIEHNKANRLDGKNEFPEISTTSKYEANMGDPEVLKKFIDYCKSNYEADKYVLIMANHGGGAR
Description: as §1, §2, §3, §4, §5

[5] = biological target: T3, cynomolgus serum albumin (CSA) (Macaca fascicularis, UniProt A2V9Z4); experiment: Biacore analysis of binding to CSA; details: CSA immobilized, Biacore2000; relative KD only
T3 construct: CSA (purified in-house from cynomolgus serum); from tissue; host or cells: cynomolgus serum
T3 sequence (A2V9Z4 25-608): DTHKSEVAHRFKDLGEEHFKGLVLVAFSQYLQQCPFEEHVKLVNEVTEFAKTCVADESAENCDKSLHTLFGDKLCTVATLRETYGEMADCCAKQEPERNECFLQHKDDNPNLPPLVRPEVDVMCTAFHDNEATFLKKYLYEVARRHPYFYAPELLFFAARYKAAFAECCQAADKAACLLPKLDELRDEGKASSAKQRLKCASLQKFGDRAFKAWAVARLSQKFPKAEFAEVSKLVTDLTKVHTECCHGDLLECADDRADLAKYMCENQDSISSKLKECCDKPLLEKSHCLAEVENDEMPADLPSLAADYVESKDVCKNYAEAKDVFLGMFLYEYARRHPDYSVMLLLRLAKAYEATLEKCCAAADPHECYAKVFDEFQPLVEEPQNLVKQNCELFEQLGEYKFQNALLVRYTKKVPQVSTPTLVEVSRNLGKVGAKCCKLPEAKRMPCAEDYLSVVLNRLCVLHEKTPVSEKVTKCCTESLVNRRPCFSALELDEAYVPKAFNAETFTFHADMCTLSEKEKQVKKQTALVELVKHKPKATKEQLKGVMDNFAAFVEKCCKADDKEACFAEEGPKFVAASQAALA

clostripain [6] = tested on: T1, clostripain; experiment: Clostripain cleavage, LC/MS analysis; type: in vitro ADME, Clostridium histolyticum; details: Clostridium histolyticum, clostripain (isolated protease), read-out: remaining % ABD variant; for remaining at 0.25 h: 15 min; for remaining at 0.5 h: 30 min; for remaining at 20 h: 1200 min
Description: as §1
(§6) In the first experiment, 0.2 U clostripain/mg ABD variant was incubated for up to 20 h at 25° C., but only a low level of cleavage was detected by SDS-PAGE and LC/MS analysis.
as §2, §3
(§7) LC/MS analyses were performed using an Agilent 1100 LC/MSD system, equipped with API-ESI and a single quadruple mass analyzer. 10 μl of each cleavage mixture was injected on a Zorbax 300SB-C8 Narrow-Bore column (2.1×150 mm, 3.5 μm, Agilent Technologies) at a flow-rate of 0.5 ml/min. Elution was performed using a linear gradient of 10-70% solution B for 15 min at 0.5 ml/min. The separation was performed at 30° C. The ion signal and the absorbance at 280 and 220 nm were monitored.
(§8) FIGS. 4 and 5 show the LC/MS analysis of ABD variant samples incubated for up to 20 h with 0.2 U and up to 22 h with 5 U respectively of clostripain per mg ABD variant. The main peak was integrated, and the area transformed to % of remaining intact ABD variant at t=0.
(§9) The main peak was integrated and the area transformed to % of remaining intact ABD at t=0. The LC/MS analysis described above was used for analysis.

clostripain [7] = biological target: T2, clostripain; experiment: Clostripain cleavage, LC/MS analysis; type: in vitro ADME, Clostridium histolyticum
Description: as §1, §6, §2, §3, §7, §8, §9

[8] = pH 7.6, 0.2 U clostripain/mg, 120 min
[9] = pH 7.6, 5 U clostripain/mg, 2 h

Sequence	pKd [2]	metabolised at 22 h (clostripain [3]) [%]	resistance to clostripain cleavage, comparison (clostripain [4])	incubation time at which some cleavage was seen (clostripain [4]; 25° C.) [h]	cleaved after 22 h (clostripain [4]; 25° C.) [%]	pKd [5]	remaining at 2 min (clostripain [6]; pH 7.6, 0.2 U clostripain/mg) [%]	remaining at 5 min (clostripain [6]; pH 7.6, 0.2 U clostripain/mg) [%]	remaining at 0.25 h (clostripain [6]; pH 7.6, 0.2 U clostripain/mg) [%]	remaining at 0.5 h (clostripain [6]; pH 7.6, 0.2 U clostripain/mg) [%]	remaining at 2 h (clostripain [6]; [8]) [%]	remaining at 20 h (clostripain [6]; pH 7.6, 0.2 U clostripain/mg) [%]	remaining at 1 h (clostripain [6]; pH 7.6, 5 U clostripain/mg) [%]	remaining at 2 h (clostripain [6]; [9]) [%]	remaining at 4 h (clostripain [6]; pH 7.6, 5 U clostripain/mg) [%]	remaining at 6 h (clostripain [6]; pH 7.6, 5 U clostripain/mg) [%]	remaining at 8 h (clostripain [6]; pH 7.6, 5 U clostripain/mg) [%]	remaining at 22 h (clostripain [6]; pH 7.6, 5 U clostripain/mg) [%]	remaining % ABD variant (clostripain [7]; 0.2 U clostripain/mg, 0 min) [%]	remaining % ABD variant (clostripain [7]; 5 U clostripain/mg, 0 h) [%]	also measured
GSSLAEAKEAANAELDSYGVSDFYKKLIDKAKTVEGVEALKDAILAALP [PEP12380]	11.12	~50	highest level of resistance to cleavage	6 to 8	~50	10.96	100	101	101	101	100	100	96	93	84	77	69	30	100	100	thermal stability, comparison of variants [1]: highest thermal stability of the three variants; protease stability, comparison (clostripain [7]; as compared to PEP12379, PEP12381 and PEP07843): superior properties with respect to protease stability; increase of degradation products over time, comparison (clostripain [7]; both low and high clostripain concentrations): lowest increase of degradation products over time
GSSLAEAKEAANAELDSYGVSDFYKNLIDKAKTVEGVEALKDAILAALP [PEP12379]		~90	more resistant to clostripain cleavage as compared to PEP07843	4 to 8	~90		100	101	101	99	99	96	92	85	71	58	47	4	100	100	
GSSLAEAKEAANAELDSYGVSDFYKRLIDKAKTVEGVEALKDAILAALP [PEP07843, reference compound]	11.17					11.01	100	101	100	100		54	46		0	0	0	0	100	100	metabolised (clostripain [3]; 4-22 h, read-out: cleaved after 4-22 h): 100%; metabolised at 2 h (clostripain [3]; 2 h, read-out: cleaved after 2 h): ~75%; cleaved after 4-22 h (clostripain [4]; 25° C., 4-22 h): 100%; cleaved after 2 h (clostripain [4]; 25° C., 2 h): ~75%; remaining % ABD variant (clostripain [7]; 0.2 U clostripain/mg, 120 min): 94%; remaining % ABD variant (clostripain [7]; 5 U clostripain/mg, 2 h): 15%
GSSLAEAKEAANAELDSYGVSDFYKSLIDKAKTVEGVEALKDAILAALP [PEP12381]		~100	more resistant to clostripain cleavage as compared to PEP07843	4 to 8	~100		101	100	100	100	99	97	91	79	60	44	31	0	100	100	
